Test results as given in US20140322225A1 (ADRENOMED, published 2014).
Each block holds one binder with its values, some of them ahead of it.

Legend:
[1] = biological target: human adrenomedullin (hADM 1-52) (human); assay: cell-based or functional assay
[2] = biological target: human adrenomedullin (hADM 1-52) (human); assay: cell-based or functional assay; remark: listed apart in the source
[3] = biological target: T1, human adrenomedullin (hADM 1-52) (human); assay: SPR (Biacore 2000), antibody captured via anti-mouse Fc, adrenomedullin as analyte
T1 construct: 52 amino acids, aa 95-146 of pre-proADM; also called Human ADM 1-52
Procedure: Reversible immobilization of the antibodies was performed using an anti-mouse Fc antibody covalently coupled in high density to a CM5 sensor surface according to the manufacturer's instructions (mouse antibody capture kit; GE Healthcare). (Lorenz et al., “Functional Antibodies Targeting IsaA of Staphylococcus aureus Augment-lost Immune Response and Open New Perspectives for Antibacterial Therapy”; Antimicrob Agents Chemother. 2011 January; 55(1): 165-173.)

[4] = biological target: human recombinant adrenomedullin receptor (CRLR+RAMP3) (human); assay: cell-based or functional assay

T1 sequence (peptide, as listed by the source): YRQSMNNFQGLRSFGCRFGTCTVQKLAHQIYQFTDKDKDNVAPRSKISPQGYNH

fold stability of hADM in human citrate plasma with NT-H against hADM alone (7.8 h) [1]: 2.3 fold
IC50 (read off the curve), half of the antibody's own maximal inhibition of cAMP formation induced by 5.63 nM hADM [2]: ~2 µg/mL
Kd [3]: 5.9 nM
B1: NT-H (antibody, V domains shown)
VH: QVQLQQSGAELMKPGASVKISCKATGYTFSRYWIEWVKQRPGHGLEWIGEILPGSGSTNYNEKFKGKATITADTSSNTAYMQLSSLTSEDSAVYYCTEGYEYDGFDYWGQGTTLTVSS
VL: DVLLSQTPLSLPVSLGDQATISCRSSQSIVYSNGNTYLEWYLQKPGQSPKLLIYRVSNRFSGVPDRFSGSGSGTDFTLKISRVEAEDLGVYYCFQGSHIPYTFGGGTKLEIK
notes: also called NT-H antibody; antibody NT-H

EC50 (read off the curve), cAMP formation [4]: ~0.08 nM
B2: mouse adrenomedullin (mADM 1-50) (peptide)
peptide: YRQSMNQGSRSNGCRFGTCTFQKLAHQIYQLTDKDKDGMAPRNKISPQGYNH
